Source: paper doi:10.1101/2025.09.11.675134, “Biodistribution-Driven Discovery Identifies a Glycosidase-Cleavable Linker to Reprogram Radiotheranostics” (bioRxiv, 2025)
Where two headings read alike, the source gives them in different places.

How the values were obtained:
[1] = Ex vivo biodistribution of 111In-labeled variants in AR42J xenograft mice; design: species or system athymic nude mice; settings: athymic nude, mouse, iv, 1 ug, total radioactivity, 1 h post-injection; for tissue uptake at 1 h: in vivo, AR42J tumor-bearing mice
Procedure: For studies involving three variants (DOTA -TATE, DOTA-MVK(ε)-TATE, and DOTA-β-Gal-TATE), AR42J cells (5 × 10^6 cells per mouse) were subcutaneously inoculated into the right shoulder of the mice. Tumors were allowed to grow for 3 weeks, reaching a volume of 100 –200 mm³ before being used in subsequent experiments. For biodistribution or PET imaging studies, mice bearing subcutaneous AR42J tumors were administered 1.4 – 1.8 MBq (1 μg) of 111In-labeled DOTA-TATE variants or 2.7 – 4.9 MBq (1 μg) of 86Y-labeled DOTA-TATE variants via tail vein injection. Biodistribution studies with 111In-labeled DOTA -TATE variants were performed 1 hour post -injection (n = 3 per cohort), while studies with 86Y-labeled DOTA-TATE variants were conducted at 1, 4, and 24 hours post -injection (n = 3 per cohort). Mice were euthanized by CO2 asphyxiation, and 10 tissues, including tumors, were collected. All samples were weighed and counted on a gamma counter (2480 Wizard 3, Perkin Elmer Inc., Waltham, MA, USA). Results are presented as percentage of injected activity per gram (%IA/g) and mean values ± standard deviations. […]

[2] = Ex vivo biodistribution screen of 111In-labeled DOTA-TATE derivatives in normal mice; design: species or system athymic nude mice; settings: 2 h post-injection; for tissue uptake at 2 h: athymic nude, mouse, in vivo, iv, 1 ug per mouse, total radioactivity, normal athymic nude mice, mean
Procedure: The panel of 10 compounds were then tested in an initial biodistribution screen of 9 organs assessed in non-tumor-bearing mice at specific timepoints following administration of the radioconjugates. Each agent was initially labeled with ^111In, a long-lived gamma-emitting radioisotope suitable for biodistribution studies, with high radiochemical yields and purity (Fig. S12). The compounds were then dosed (1.55 ± 0.12 MBq; 1 μg per mouse) in healthy athymic nude mice via intravenous (i.v.) injection in phosphate-buffered saline (PBS; vehicle). After 2 hours, the mice were sacrificed and ex vivo biodistribution analysis was performed (Fig. 2). […] This was an expected finding because this variant was designed to bind serum albumin.
Radiolabeling and In Vivo Evaluation of DOTA-TATE Variants:
Biodistribution, PET Quantification, and Dosimetry
Radiolabeling: To perform the initial biodistribution screen, radiolabeling of 10 compounds, including DOTA-TATE, was carried out using 111In (Cardinal Health, Arbutus, MD, USA), an affordable and readily available gamma -emitting radioisotope with a moderate half -life (2.83 days), which affords efficient DOTA radiolabeling and facilitates handling. 111InCl3 (28 – 36 MBq) was diluted with 0.4 M NH 4OAc buffer (pH 5.2) and combined with DOTA -TATE variants (20 μg). The solution was mixed well and then incubated at 90 °C for 30 min.
Radiolabeling efficiency and radiochemical purity were determined by radio -TLC and radio - HPLC. Radiochemical yield was >95% and the material was used without further purification.
The specific activity was 1.55 ± 0.12 TBq/g (41.9 ± 3.2 Ci/g). […]
Radio-instant thin-layer chromatography (radio-iTLC) was performed using silicic acid-impregnated glass microfiber paper strips (iTLC-SA, Varian, Lake Forest, CA, USA) as the stationary phase, and 50 mM EDTA in 100 mM NH4OAc (pH 5.5) as the mobile phase, analyzed with a radio-TLC scanner (AR-2000, Eckert-Ziegler, Wilmington, MA, USA). For Ac-225, equilibration was allowed for at least 12 hours before scanning the TLC strips to confirm initial scans. Radio-HPLC analysis (Agilent 1260 Infinity II, Agilent Technologies Inc., Santa Clara, CA, USA) was conducted on a TSK- Octadecyl-4PW column (5 µm, 4.6 mm ID × 15 cm, Tosoh
Co. Tokyo, Japan) with gradient elution using 0.1% trifluoroacetic acid in water as mobile phase A and 0.1% trifluoroacetic acid in acetonitrile as Mobile phase B. The elution sequence was 0-5 […]
PET imaging and biodistribution: For initial biodistribution screen studies, normal mice were administered 1.4 – 1.8 MBq (1 μg) of 111In-DOTA-TATE variants via tail vein injection and biodistribution studies were conducted at 2 hours post -injection (n = 2 – 4 per cohort).
For studies involving three variants (DOTA -TATE, DOTA-MVK(ε)-TATE, and DOTA-β-Gal-TATE), AR42J cells (5 × 10^6 cells per mouse) were subcutaneously inoculated into the right shoulder of the mice. Tumors were allowed to grow for 3 weeks, reaching a volume of 100 –200 mm³ before being used in subsequent experiments. For biodistribution or PET imaging studies, mice bearing subcutaneous AR42J tumors were administered 1.4 – 1.8 MBq (1 μg) of 111In-labeled DOTA-TATE variants or 2.7 – 4.9 MBq (1 μg) of 86Y-labeled DOTA-TATE variants via tail vein injection. Biodistribution studies with 111In-labeled DOTA -TATE variants were performed 1 hour post -injection (n = 3 per cohort), while studies with 86Y-labeled DOTA-TATE variants were conducted at 1, 4, and 24 hours post -injection (n = 3 per cohort). Mice were euthanized by CO2 asphyxiation, and 10 tissues, including tumors, were collected. All samples were weighed and counted on a gamma counter (2480 Wizard 3, Perkin Elmer Inc., Waltham, MA, USA). Results are presented as percentage of injected activity per gram (%IA/g) and mean values ± standard deviations.
PET imaging to assess the uptake of three 86Y-labeled DOTA-TATE variants (2.7 – 4.9 MBq, 1 […]

## C[C@@H](O)[C@H](NC(=O)[C@@H]1CSSC[C@H](NC(=O)[C@@H](Cc2ccccc2)NC(=O)CCCC(=O)Nc2cc(COC(=O)N(C)CCNC(=O)CN3CCN(CC(=O)O)CCN(CC(=O)O)CCN(CC(=O)O)CC3)ccc2O[C@@H]2O[C@H](CO)[C@H](O)[C@H](O)[C@H]2O)C(=O)N[C@@H](Cc2ccc(O)cc2)C(=O)N[C@H](Cc2c[nH]c3ccccc23)C(=O)N[C@@H](CCCCN)C(=O)N[C@@H]([C@@H](C)O)C(=O)N1)C(=O)O [^111In-DOTA-β-Gal-TATE, metal not drawn]
[1]; i.v. 1 μg (1.4–1.8 MBq), ex vivo gamma counting, mean, n = 3, read-out: Blood uptake
  tissue uptake at 1 h: 0.56 %ID/g
[1]; i.v. 1 μg, ex vivo, mean (± SD), n = 3, read-out: Kidney uptake
  tissue uptake at 1 h: 5.19 ± 0.18 %ID/g
[1]; i.v. 1 μg, ex vivo, mean (± SD), n = 3, read-out: Tumor uptake
  tissue uptake at 1 h: 10.8 ± 1.11 %ID/g
[1]; i.v. 1 μg, ex vivo, mean, n = 3, read-out: Femur uptake
  tissue uptake at 1 h: 0.34 %ID/g
[1]; i.v. 1 μg, ex vivo, mean, n = 3, read-out: Heart uptake
  tissue uptake at 1 h: 0.29 %ID/g
[1]; i.v. 1 μg, ex vivo, mean, n = 3, read-out: Intestine uptake
  tissue uptake at 1 h: 0.79 %ID/g
[1]; i.v. 1 μg, ex vivo, mean, n = 3, read-out: Liver uptake
  tissue uptake at 1 h: 0.45 %ID/g
[1]; i.v. 1 μg, ex vivo, mean, n = 3, read-out: Lung uptake
  tissue uptake at 1 h: 0.92 %ID/g
[1]; i.v. 1 μg, ex vivo, mean, n = 3, read-out: Muscle uptake
  tissue uptake at 1 h: 0.17 %ID/g
[1]; i.v. 1 μg, ex vivo, mean, n = 3, read-out: Spleen uptake
  tissue uptake at 1 h: 0.21 %ID/g
[1]; AR42J xenografts, ex vivo, read-out: Tumor-to-kidney (T/K) ratio
  tissue to tissue ratio at 1 h: 2.08
[2]; i.v. 1 μg (1.4–1.8 MBq), ex vivo gamma counting, n = 2–4, read-out: Blood uptake
  tissue uptake at 2 h: 0.04 %ID/g
[2]; i.v. 1 μg, ex vivo, n = 2–4, read-out: Femur uptake
  tissue uptake at 2 h: 0.07 %ID/g
[2]; i.v. 1 μg, ex vivo, n = 2–4, read-out: Heart uptake
  tissue uptake at 2 h: 0.03 %ID/g
[2]; i.v. 1 μg, ex vivo, n = 2–4, read-out: Intestine uptake
  tissue uptake at 2 h: 0.49 %ID/g
[2]; i.v. 1 μg, ex vivo, n = 2–4, read-out: Liver uptake
  tissue uptake at 2 h: 0.11 %ID/g
[2]; i.v. 1 μg, ex vivo, n = 2–4, read-out: Lung uptake
  tissue uptake at 2 h: 0.28 %ID/g
[2]; i.v. 1 μg, ex vivo, n = 2–4, read-out: Muscle uptake
  tissue uptake at 2 h: 0.02 %ID/g
[2]; i.v. 1 μg, ex vivo, n = 2–4, read-out: Spleen uptake
  tissue uptake at 2 h: 0.08 %ID/g
[2]; normal mice, 111In-DOTA-TATE set as 100%
  Relative kidney retention, % rel. to DOTA-TATE: 67%
